Ends that are not written are not given here.

B1: iCAL36 P-1 FB-K (peptide)
chain: ANSRWPTSKI
B2: iCAL36 P-1 BB-K (peptide)
chain: ANSRWPTSKI
B3: iCAL36 P-3 Ac-K (peptide)
chain: ANSRWPK(Ac)SII
B4: iCAL36 P-4 Ac-K (peptide)
chain: ANSRWK(Ac)TSII
B5: iCAL36 P-1 Ac-K (peptide)
chain: ANSRWPTSK(Ac)I
B6: iCAL36 P-5 Ac-K (peptide)
chain: ANSRK(Ac)PTSII
B7: iCAL36 P-1 Tfa-K (peptide)
chain: ANSRWPTSKI

One experiment has as its target T1, CAL (CFTR-associated ligand) PDZ (Homo sapiens, UniProt Q9HD26). Description: SPR. For orientation: Surface plasmon resonance follows binding to a sensor surface in real time, without labels.
B1 had a Kd of 27.9 µM. This lies in the double-digit micromolar range. In turn, B2 gave a Kd of 20 µM. For the molecule B3, the equilibrium dissociation constant (Kd) came to 122 µM. Against the preceding molecule, the Kd is about 6.1-fold higher. On the same count and under the same terms, the figure for B4 is 64.6 µM; for B5 it is 39.5 µM. The molecule B6 displayed a Kd of 298 µM.

Turning to B7, binding was characterised by a dissociation constant (Kd) of 22.3 µM.

The target of a further experiment is T1, CAL (CFTR-associated ligand) PDZ. The experiment in a line: ITC. Background: In ITC the heat of successive injections is recorded.
Take B1: binding was put at a Kd of 12.8 µM. In other words, the double-digit micromolar range. The same measure, in the same setting: for B2 the value was 20.7 µM; for B3, 91.9 µM. With B4, the affinity, expressed as Kd, was 49.4 µM. Still for that read-out and setting: for B5 the value was 26.4 µM; for B7, 34.5 µM.

The Kd is a measure of binding affinity in units of concentration.
